Reference: the Human Domainome abundance scans (Beltran et al. 2025)

B1: Protein C-ets-1, residues 55 to 135; numbered along this chain, P14921 (parent)
chain: GFTKEQQRLGIPKDPRQWTETHVRDWVMWAVNEFSLKGVDFQKFCMNGAALCALGKDCFLELAPDFVGDILWEHLEILQKE

Variants of: B1
Experiment: abundance fitness (aPCA) (normalised: wild type 0, dead -1); higher = more abundant; growth selection in yeast, the domain comes from the species named
Settings: Homo sapiens

Abundance fitness of substitutions, site by site:
P15: L -0.281, T -0.498, W -0.685, M -0.286, K -0.813, G -0.845, A -0.351, E -0.974, S -1.02, F -0.935, D -1.15, H -0.791, I -0.064, N -0.717, Y -1.07, V -0.1, Q -0.838, C -0.254
L9: T -0.082, R -0.017, H -0.216, N -0.137, P -0.32, G -0.195, C -0.088, Q -0.165, W -0.192, V -0.126, Y -0.158, K -0.139, M -0.066, F -0.2, A -0.182, I -0.178, E -0.261
R16: I -0.038, P -0.643, G -0.108, Y -0.049, W -0.107, C -0.04, D -0.147, V -0.055, F -0.024, N 0.031, A -0.009, L -0.025, Q -0.006, E -0.01, M -0.029, S -0.096
K13: E -0.084, M -0.086, H -0.04, N 0.008, L -0.065, D -0.054, Y -0.249, V -0.1, W -0.117, Q -0.059, I -0.022, P 0.023, T -0.064, G -0.088, C -0.04, R -0.077, F -0.152
P12: F -0.606, L -0.567, T -0.799, E -0.413, R -0.709, N -0.47, W -0.706, S -0.28, C -0.305, H -0.379, G -0.427, D -0.371, K -0.419, Q -0.814, M -0.747, V -0.763, A -0.46
G10: L -0.244, P -0.263, Q 0.008, W -0.364, I -0.187, N -0.135, A -0.057, R -0.056, T -0.103, E -0.067, Y -0.33, K -0.028, D 0.015, S -0.062, V -0.2, C -0.15, H -0.072
I11: W -0.078, S -0.344, G -0.583, K -0.695, D -0.647, V -0.09, R -0.132, L -0.013, N -0.288, C -0.108, Y -0.207, M -0.043, A -0.326, E -0.773, H -0.364, P -0.465, T -0.205
Q17: L -0.088, I -0.114, N -0.021, P -0.983, W -0.148, H -0.115, R -0.058, M 0.014, C -0.034, G -0.159, D 0.016, Y -0.154, E 0.046, V 0.002, T 0.033, F -0.1, A 0.013
W18: C -0.785, A -0.967
R8: W -0.169, L -0.086, T -0.111, Q -0.083, S -0.136, P -0.132, M -0.138, V -0.122, N -0.16, Y -0.212
D14: R -0.684, K -0.547, G -0.844, H -0.155, A -0.533, N -0.122, M -0.52, W -0.661, Y -0.407, T -0.62, F -0.443, P -0.813, C -0.152, V -0.602, L -0.552, I -0.76, S -0.339, E -0.172, Q -0.356
